Values joined by “and” are separate entries in the source; they are usually repeats but may differ in a detail not shown here. Identical values can stand only once. Like-named read-outs stand apart in the source and are kept apart here. Numbered stars: 1 amine (or outer) side, 2 acyl side, 3 side chain; on linkers, the order of the positions; unused ones are H or OH. Square brackets hold non-standard residues; d marks the D form. Side chains are listed from the residue outwards. Ends that are not written are not given here. * marks the point of attachment. C18 diacid = O=C(O)CCCCCCCCCCCCCCCCC(=O)*; γGlu = O=C(O)[C@H](CCC(=O)[*:2])N[*:1]; Hexadienoyl(2E,4E) = C/C=C/C=C/C(=O)*; NMeI = CC[C@H](C)[C@H](NC)C(=O)O; NMeL = CN[C@@H](CC(C)C)C(=O)O; Fumaroyl = O=C(O)/C=C/C(=O)*; Suc = O=C(CCC(=O)[*:2])[*:1]; AEEA = NCCOCCOCC(=O)O
Target: T1, human ETB receptor (Homo sapiens, UniProt P24530)
T1 construct: expressed in transfected cells; host or cells: 293T-17 cells, transient transfection
T1 sequence (P24530 27-442): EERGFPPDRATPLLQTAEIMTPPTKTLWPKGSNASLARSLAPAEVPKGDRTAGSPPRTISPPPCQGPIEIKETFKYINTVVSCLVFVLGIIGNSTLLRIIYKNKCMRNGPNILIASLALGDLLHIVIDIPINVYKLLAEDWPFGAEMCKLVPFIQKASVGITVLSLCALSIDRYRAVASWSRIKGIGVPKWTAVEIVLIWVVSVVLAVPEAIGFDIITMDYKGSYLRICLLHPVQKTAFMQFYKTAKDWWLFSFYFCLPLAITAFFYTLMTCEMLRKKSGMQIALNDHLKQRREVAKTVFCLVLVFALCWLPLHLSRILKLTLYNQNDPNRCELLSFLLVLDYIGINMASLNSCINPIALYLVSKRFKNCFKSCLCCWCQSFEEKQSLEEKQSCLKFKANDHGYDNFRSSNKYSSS
Assay: Screening of polypeptides for activity on human ETB receptor (IP-One Gq kit, % of positive control IRL1620)
Assay type: cell-based
Description: 293T-17 cells were seeded at a density of 650,000 cells per well in a 6-well plate and cultured overnight in an incubator at 37°C and 5% CO2. Afterward, the cells were transfected with an expression vector, PCDNA3.1-hETB which contained a human ETB receptor gene, at a plasmid concentration of 2.5 µg per well. The cells were further cultured for 48 hours, and green fluorescence expression was observed under a fluorescence microscope. The cells were then digested with trypsin and counted. The activity of compounds on the human ETB receptor was determined with the IP-One Gq kit from Cisbio Bioassays. The cells were suspended in Stim Buffer provided in the kit and the cell suspension was added to a 96-well detection plate at 7 µL cell suspension (containing 30,000 cells) per well. The polypeptides to be screened for activity (prepared according to the Preparation Example of the invention) and polypeptide IRL1620 as positive control were dissolved in Stim B to be at a concentration of 2×, and 7 µL was added to the test cells, while 7 µL of PBS solution was added to the cells in the negative control wells. IRL1620 was used as the positive control polypeptide. The plate was sealed and incubated at 37°C for 1 hour in a cell culture incubator. Test wells, positive control wells, and PBS control wells were each added with 3 µL of IP1 d2 working solution and 3 µL of IP1 Tb cryptotate Antibody working solution. The plate was then sealed and incubated in the dark at room temperature (25°C±5°C) for 1 hour. The plate seal was removed, and the […] at 665 nm and 620 nm was measured with an ID5 microplate reader. The ratio of the acceptor emission signal to the donor emission signal, i.e., the value of (signal at 665 nm/signal at 620 nm)×10^4, was calculated for each well. With F1 representing the average value of values of signal at 665 nm/signal at 620 nm determined for the test sample at a specific concentration, F2 representing the average value of values of signal at 665 nm/signal at 620 nm determined for the positive control IRL1620 at the same concentration, and T1 representing the average value of values of signal at 665 nm/signal at 620 nm determined for the PBS negative control, the percentage of activity of the test polypeptide sample relative to the positive control sample IRL1620 is equal to (F1-T1)×100/(F2-T1). hETB sequence (NCBI accession number NM_000115.5).

Fum-D cyclo(EEAK)YFAHK(-γE-AEEA-AEEA-ODDA)D(2-Abu)IW [BX-104]
hETBR agonist activity, percentage of activity relative to IRL1620: -21.93%@100nM | hETBR agonist activity, percentage of activity relative to IRL1620 (@10nM): -1299.77%@10nM

Fum-D cyclo(EEAK)YFAHK(-γE-AEEA-AEEA-ODDA)DIIW [BX-103]
hETBR agonist activity, percentage of activity relative to IRL1620: 14.93%@100nM | hETBR agonist activity, percentage of activity relative to IRL1620 (@10nM): 45.51%@10nM

Fum-D cyclo(EEAK)YFAHLDIIW (Fumaroyl-DEEAKYFAHLDIIW; lactam (positions not given here)) [BX-102]
hETBR agonist activity, percentage of activity relative to IRL1620: 155.47% | hETBR agonist activity, percentage of activity relative to IRL1620 (@10nM): 113.81%

Fum-DEE(C16)AVYFAHLDIIW ({Fumaroyl-Asp-Glu-E(C16)}-AVYFAHLDIIW; not fully specified; printed as Fum-DEE(C16)AVYFAHLDIIW) [BX14-1]
hETBR agonist activity, percentage of activity relative to IRL1620 (@1µM): 15.80 %@1µM | hETBR agonist activity, percentage of activity relative to IRL1620 (@10µM): 18.63%@10µM

Fum-DEEAK(-γE-AEEA-AEEA-ODDA)YFAHLDIIW [BX-67] (Fum-DEEAK with lipidated linker N-terminal)
hETBR agonist activity, percentage of activity relative to IRL1620: 46.98%@100nM | hETBR agonist activity, percentage of activity relative to IRL1620 (@10nM): 2.68%@10nM

Fum-DEEAK(-γE-AEEA-AEEA-ODDA)YFAHLDIIW [BX-109] (Fum-DEEAK with lipidated linker N-terminal)
hETBR agonist activity, percentage of activity relative to IRL1620: 74.1%@100nM | hETBR agonist activity, percentage of activity relative to IRL1620 (@10nM): -1095.4%@10nM

Fum-DEEAK(-γE-AEEA-AEEA-ODDA)YFAHLDVIW (Fum-DEEAK with lipidated linker N-terminal) [BX-110]
hETBR agonist activity, percentage of activity relative to IRL1620: 132.61%@100nM | hETBR agonist activity, percentage of activity relative to IRL1620 (@10nM): 138.99%@10nM

Fum-DEEAKYFAHK(-γE-AEEA-AEEA-ODDA)DIIW (Fumaroyl-DEEAKYFAHK([γGlu-AEEA-AEEA-C18 diacid])DIIW) [BX-107]
hETBR agonist activity, percentage of activity relative to IRL1620: 100.37%@100nM | hETBR agonist activity, percentage of activity relative to IRL1620 (@10nM): 50.48%@10nM

Fum-DEEAKYFAHK(-γE-AEEA-AEEA-ODDA)DVIW (Fumaroyl-DEEAKYFAHK([γGlu-AEEA-AEEA-C18 diacid])DVIW) [BX-108]
hETBR agonist activity, percentage of activity relative to IRL1620: 9.56%@100nM | hETBR agonist activity, percentage of activity relative to IRL1620 (@10nM): -1185.11%@10nM

Fum-DEEAKYFAHLDIIW (Fumaroyl-DEEAKYFAHLDIIW) [BX-105]
hETBR agonist activity, percentage of activity relative to IRL1620: 253.05%@100nM | hETBR agonist activity, percentage of activity relative to IRL1620 (@10nM): 64.66%@10nM

Fum-DEEAKYFAHLDVIW (Fumaroyl-DEEAKYFAHLDVIW) [BX-106]
hETBR agonist activity, percentage of activity relative to IRL1620: 117.63%@100nM | hETBR agonist activity, percentage of activity relative to IRL1620 (@10nM): 117.57%@10nM

Fum-DEEAVYFAHK(-γE-AEEA-AEEA-ODDA)DVIW (Fumaroyl-DEEAVYFAHK([γGlu-AEEA-AEEA-C18 diacid])DVIW) [BX-101]
hETBR agonist activity, percentage of activity relative to IRL1620: 30.96%

Fum-DEEAVYFAHKDVIW (Fumaroyl-DEEAVYFAHKDVIW) [BX-23]
hETBR agonist activity, percentage of activity relative to IRL1620: 89.28%@100nM | hETBR agonist activity, percentage of activity relative to IRL1620 (@10nM): 26.12%@10nM

Fum-DEEAVYFAHL(N-Me)DI(N-Me)IW (Fumaroyl-DEEAVYFAH[NMeL]; not fully specified (C-terminus)) [BX-29]
hETBR agonist activity, percentage of activity relative to IRL1620: 6.51%@100nM | hETBR agonist activity, percentage of activity relative to IRL1620 (@10nM): 15.61%@10nM

Fum-DEEAVYFAHL(N-Me)DIIW (Fumaroyl-DEEAVYFAH[NMeL]; not fully specified (C-terminus)) [BX-28]
hETBR agonist activity, percentage of activity relative to IRL1620: -10.73%@100nM | hETBR agonist activity, percentage of activity relative to IRL1620 (@10nM): 8.27%@10nM

Fum-DEEAVYFAHLDVIW (Fumaroyl-DEEAVYFAHLDVIW) [FBX-7]
hETBR agonist activity, percentage of activity relative to IRL1620: 99.81%@100nM | hETBR agonist activity, percentage of activity relative to IRL1620 (@10nM): 91.89%@10nM

Fum-DEEAVYFAHOrn(-AEEA-AEEA-γE-ODDA)DIIW [BX-51]
hETBR agonist activity, percentage of activity relative to IRL1620: 37.60%@100nM | hETBR agonist activity, percentage of activity relative to IRL1620 (@10nM): 47.83%@10nM

Fum-DEEAVYFK(-γE-AEEA-AEEA-ODDA)HLDIIW (Fumaroyl-DEEAVYFK([γGlu-AEEA-AEEA-C18 diacid])-{H2N-Leu-Asp-Ile-Ile-Trp}) [BX-68]
hETBR agonist activity, percentage of activity relative to IRL1620: -18.64%@100nM | hETBR agonist activity, percentage of activity relative to IRL1620 (@10nM): -39.42%@10nM

Fum-DEEE(Biotin)VYFAHKDIIW [BX-16]
hETBR agonist activity, percentage of activity relative to IRL1620: 22.24%@1µM and 14.10%@10µM

Fum-DEEEVYFAHK(-AEEA-AEEA-γE - ODDA)DIIW (Fumaroyl-DEEEVYFAHK([AEEA-AEEA-γGlu-C18 diacid])DIIW) [BX-60]
hETBR agonist activity, percentage of activity relative to IRL1620: 4.84%@100nM | hETBR agonist activity, percentage of activity relative to IRL1620 (@10nM): -15.72%@10nM

MeO-Fum-D cyclo(EEAK)YFAHLD(2-Abu)IW [BX-65]
hETBR agonist activity, percentage of activity relative to IRL1620: 99.24%@100nM | hETBR agonist activity, percentage of activity relative to IRL1620 (@10nM): 59.02%@10nM

MeO-Fum-DEEAVYFAHK(-γE-AEEA-AEEA-ODDA)DIIW ({MeO‑Fum}-DEEAVYFAHK([γGlu-AEEA-AEEA-C18 diacid])DIIW) [BX-75]
hETBR agonist activity, percentage of activity relative to IRL1620: -10.59%@100nM | hETBR agonist activity, percentage of activity relative to IRL1620 (@10nM): 14.68%@10nM

SA-DEEAVYFAHLDIIW ({Hexadienoyl(2E,4E)}-DEEAVYFAHLDIIW) [BX-111]
hETBR agonist activity, percentage of activity relative to IRL1620: 64.98%@100nM | hETBR agonist activity, percentage of activity relative to IRL1620 (@10nM): -11.84%@10nM

Suc-DEEAVYFAHL(N-Me)DI(N-Me)IW (Suc-DEEAVYFAH[NMeL]; not fully specified (C-terminus)) [BX-27]
hETBR agonist activity, percentage of activity relative to IRL1620: 0.42%@100nM | hETBR agonist activity, percentage of activity relative to IRL1620 (@10nM): 1.72%@10nM

Suc-DEEAVYFAHL(N-Me)DIIW (Suc-DEEAVYFAH[NMeL]; not fully specified (C-terminus)) [BX-26]
hETBR agonist activity, percentage of activity relative to IRL1620: 30.58%@100nM | hETBR agonist activity, percentage of activity relative to IRL1620 (@10nM): 11.94%@10nM

Suc-DEEAVYFAHLDI(N-Me)IW (Suc-DEEAVYFAHLDI[NMeI]W) [BX-25]
hETBR agonist activity, percentage of activity relative to IRL1620: 28.86%@100nM | hETBR agonist activity, percentage of activity relative to IRL1620 (@10nM): 19.19%@10nM

Suc-DEEAVYFAHOrn(-AEEA-AEEA-γE - ODDA)DIIW [BX-61]
hETBR agonist activity, percentage of activity relative to IRL1620: 40.94%@100nM | hETBR agonist activity, percentage of activity relative to IRL1620 (@10nM): 13.97%@10nM

— EP4702986A1, “POLYPEPTIDE AND USE THEREOF” (Biocells (Beijing) Biotech Co., Ltd., priority 2023, dated 2024)
